From paper doi:10.1101/2022.01.02.474068

Molecular target: BTN2A1 B30.2 domain (human)
Assay: SEC-MALS

Substance: BTN2A1 B30.2 domain (domain or fragment)
- stoichiometry N: 2
